From the supplement of paper PMC9170038

Tested on: MS2 coat protein
Assay: apparent KD of MS2 coat protein; designed switch direction (-1 OFF switch, 1 ON switch): -1; higher = weaker reporter binding
Outline: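 On Illumina chips, designed RNA switches with common flanks were made by stalled E. coli RNA polymerase. Titrations with SNAP-549-labelled MS2 coat protein, doubling from 0.7 or 1.5 nM to 3 µM, were done with no input, with 200 uM small-molecule ligand, or with an oligonucleotide input. Apparent KD is the median per design over clusters, from curve fits of normalised cluster fluorescence.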

[1] = Eterna round: R95, input ligand: microRNA oligo, concentration not stated
[2] = Eterna round: R95, input ligand: FMN 200 uM
[3] = Eterna round: R95, input ligand: none
[4] = input ligand: microRNA oligo, concentration not stated

Sequence: GGUGGACAUGAGGAUCACCCAUGUGAGGAUAUCGGCUGGCUAGCGGCUGACGGCUGCUCGAGAAGGCGCAUUGU [Exclusion 1 V85] (puzzle: Exclusion 1)
- apparent KD of MS2 coat protein [1]: 0.0505 µM

Sequence: GUAUAACUACACGGGCUCAACAUGAGGAUCACCCAUGUCAUAUACGCAAGCUUUUUGCUUGUCUUACCUGUCCGUGA [Ariedbi] (puzzle: Sensor v3, turn-off variant 1)
- apparent KD of MS2 coat protein [2]: 0.0115 µM
- apparent KD of MS2 coat protein [1]: 0.0104 µM
- apparent KD of MS2 coat protein [3]: 0.0101 µM

Sequence: AAAUACCGGUGAGGAUAUUUAUAAUAGAACUUUAUGAUAUACAUGAGGAUCACCCAUGUUACUUUAAAGAAGGCAUCGGAUAAA [Mat - Exclusion NG 2 - Mod of JL - D89] (Eterna round: R96, puzzle: Exclusion NG 2)
- apparent KD of MS2 coat protein [4]: 0.0139 µM

Sequence: AAUUAGCAAGCGAGAUCCCACAUGAGGAUCACCCAUGUGCUCGUCUUAUAAGGUACUGUGACGAUAGUCACGGUACC [Mat - Sensor, turn-off var - Eli Mod - D20] (Eterna round: R97, puzzle: Sensor, turn-off variant 1)
- apparent KD of MS2 coat protein (input ligand: FMN 200 uM): 0.0156 µM
- apparent KD of MS2 coat protein (input ligand: none): 0.0135 µM

Sequence: UAUUAGCAAGCGAGAUCCCACAUGAGGAUCACCCAUGUAGCUCGUCUUAUAAAGGUUUCGACGAAAACGUCGAGACC [Eli 91 v27] (Eterna round: R97, puzzle: Sensor, turn-off variant 1)
- apparent KD of MS2 coat protein (input ligand: FMN 200 uM): 0.0175 µM
- apparent KD of MS2 coat protein (input ligand: none): 0.0161 µM

Sequence: CCAGCGUGUGUGAGGAUAUGCUGGUCCUUGGAUCAGCAGAAGGCACAUGAGGAUCACCCAUGUGAGAACGUUGG [JL bmx4 3.33] (puzzle: Brourd's mod of Exclusion 4)
- apparent KD of MS2 coat protein [1]: 0.0176 µM

Sequence: UCCUCACUUGAGGAUCACCCAAGUCAGGAUAUUCACUGAACUGCGUAGCAGUUCGGCCGAAGAAGGGAUUCGGG [Lacequla] (Eterna round: R97, puzzle: Exclusion 1)
- apparent KD of MS2 coat protein (input ligand: FMN 200 uM): 0.0548 µM
- apparent KD of MS2 coat protein (input ligand: none): 0.107 µM

Sequence: UAAUAACAAGCGAGAUCCUACAUGAGGAUCACCCAUGUGCUCGUCUUAUAAGGUACUGUGACGAUAGUCACGGUACC [Mat - Sensor, turn-off var - Eli Mod - D96] (Eterna round: R97, puzzle: Sensor, turn-off variant 1)
- apparent KD of MS2 coat protein (input ligand: FMN 200 uM): 0.0178 µM
- apparent KD of MS2 coat protein (input ligand: none): 0.0182 µM

Sequence: CCUAGUUGGUAAGGAUAUCCUACACUAUUCUGACCCGUGCAAGCUACAUGAGGAUCACCCAUGUGGGAGAAGGUGCGUCAACGU [Design 10] (Eterna round: R96, puzzle: Exclusion NG 2)
- apparent KD of MS2 coat protein (input ligand: FMN 200 uM): 0.0213 µM
- apparent KD of MS2 coat protein [4]: 0.0182 µM
- apparent KD of MS2 coat protein (input ligand: none): 0.0238 µM

Sequence: AGUCGUAGACAGGAUAUGCGGCUAAUAAAUAAAGCAGAAGGGUCUACUUGAGGAUCACCCAAGUGGGCGGUUUA [jl-ex6-4.20 ViennaUCT mod] (Eterna round: R97, puzzle: Exclusion 6)
- apparent KD of MS2 coat protein (input ligand: FMN 200 uM): 0.0963 µM
- apparent KD of MS2 coat protein (input ligand: none): 0.0231 µM

Sequence: UCGGCGCGAGGAUAUGCGGUUCCUGCUUCGGGCCGGAGCGUACAUGAGGAUCACCCAUGUAGAAGGCGCGCCGC [Apr-15 SS2-38] (puzzle: Exclusion 2)
- apparent KD of MS2 coat protein [1]: 0.0121 µM

Sequence: AGUAACUAUCACGAAAGUGAUAGUUACAAAACAGGUGAAACAUGAGGAUCACCCAUGUCCUCAUUUGCUCGUCUUAU [Sensor 3 - 3] (puzzle: Sensor v3, turn-off variant 2)
- apparent KD of MS2 coat protein [2]: 0.793 µM
- apparent KD of MS2 coat protein [1]: 0.384 µM
- apparent KD of MS2 coat protein [3]: 0.857 µM

Sequence: GUCUACCAGCUAGGAUAUGCAGUACAGUAAAAUGUAGAAGGAGCACGAUCCAGACAUGAGGAUCACCCAUGUGGGCGGUAGGCA [Vebiena] (Eterna round: R96, puzzle: Exclusion NG 1)
- apparent KD of MS2 coat protein (input ligand: FMN 200 uM): 0.0198 µM
- apparent KD of MS2 coat protein [4]: 0.00952 µM
- apparent KD of MS2 coat protein (input ligand: none): 0.0173 µM

Sequence: ACAUGAGGAUCACCCAUGUGGACGUAAAGGCUCAUGUAGAGUGAGGAUAUGUGAGACGAACGAGAACAGAAGGCACAAGACAGG [Deportation 6 - Jieux - Exclusion NG 3] (Eterna round: R96, puzzle: Exclusion NG 3)
- apparent KD of MS2 coat protein (input ligand: FMN 200 uM): 0.0157 µM
- apparent KD of MS2 coat protein [4]: 0.0167 µM
- apparent KD of MS2 coat protein (input ligand: none): 0.0199 µM

Sequence: ACAAAGUGAGGAUAUACUAAAACCCUCAUACCCAAAAGGGAACAUGAGGAUCACCCAUGUAGAAGGCACAUAAU [Esmainleor] (puzzle: Exclusion 2)
- apparent KD of MS2 coat protein [2]: 0.549 µM
- apparent KD of MS2 coat protein [1]: 0.1 µM
- apparent KD of MS2 coat protein [3]: 0.0923 µM

Sequence: UUUAUAUAGUAAGGAUAUGUAUUAUGUUUAUCAACAGAAGGUACUGACAUGAGGAUCACCCAUGUUUUAGUGUGGGCAUGUAGU [JMF's solution 95] (Eterna round: R96, puzzle: Exclusion NG 1)
- apparent KD of MS2 coat protein [4]: 0.181 µM

Sequence: CUGUACUGAGGAUAUACAUGAGGAUCACCCAUGUGAUGUAGUGCACGCGUACGUGUACGUAGAAGGCAGUACAG [Mat - Exclusion 3 - Eli Mod - D41] (Eterna round: R97, puzzle: Exclusion 3)
- apparent KD of MS2 coat protein (input ligand: FMN 200 uM): 0.054 µM
- apparent KD of MS2 coat protein (input ligand: none): 0.0203 µM

Sequence: GGGCUCGGUCUUCCGGCUGGGUCCACAUGAGGAUCACCCAUGUAGGAUAUCCCGGCUGCCGGCCGGGAGAAGGGCGUGUGUUUC [-39.8, -36.9 kcal, 14% A] (Eterna round: R96, puzzle: Exclusion NG 3)
- apparent KD of MS2 coat protein (input ligand: FMN 200 uM): 0.0226 µM
- apparent KD of MS2 coat protein [4]: 0.0133 µM
- apparent KD of MS2 coat protein (input ligand: none): 0.0215 µM

Sequence: AGUACUUACUCGAUAGUGUUAGUACAAUAAGCUUGUGAAACAUGAGGAUCACCCAUGUCCUCAUUAGCUCGUCUUAU [salish99_TOv2_r3_1006] (puzzle: Sensor v3, turn-off variant 2)
- apparent KD of MS2 coat protein [2]: 0.206 µM
- apparent KD of MS2 coat protein [1]: 0.758 µM
- apparent KD of MS2 coat protein [3]: 0.199 µM

Sequence: UUUUAGUCAGGAUAUACAUGAGGAUCACCCAUGUAAAAUUUUAAUUUAAUUUUAAGGUGUAGAAGGGACCACCC [Ex3 #14] (Eterna round: R97, puzzle: Exclusion 3)
- apparent KD of MS2 coat protein (input ligand: FMN 200 uM): 0.0312 µM
- apparent KD of MS2 coat protein (input ligand: none): 0.0355 µM

Sequence: GCCAGAGCAGGAUAUCUAAUAUCUCACAUGAGGAUCACCCAUGUCUAGCGAAAGCUAGAGGGAGAAGGGCUCUGGC [Mat - Exclusion 5 - Eli mod - D93] (puzzle: Exclusion 5)
- apparent KD of MS2 coat protein [2]: 0.0281 µM
- apparent KD of MS2 coat protein [1]: 0.0294 µM
- apparent KD of MS2 coat protein [3]: 0.0416 µM

Sequence: GUCAGCUCGUGAGGAUAUACAUGCGUGCUUCGGCACGUAUGAUAGAUCACAUGAGGAUCACCCAUGUAGAAGGUACGAGCUGAU [ENG2/4-C2] (Eterna round: R96, puzzle: Exclusion NG 2)
- apparent KD of MS2 coat protein (input ligand: FMN 200 uM): 0.0149 µM
- apparent KD of MS2 coat protein [4]: 0.0108 µM
- apparent KD of MS2 coat protein (input ligand: none): 0.0152 µM

Sequence: CGCGCCUGGGUCGAACGACACAUGAGGAUCACCCAUGUCAGAGGCGUAGAAUGCACAAGCUUUGACCUCGUUACGCU [Eternabot (L2) Solution 39] (Eterna round: R97, puzzle: Sensor, turn-off variant 1)
- apparent KD of MS2 coat protein (input ligand: FMN 200 uM): 0.018 µM
- apparent KD of MS2 coat protein (input ligand: none): 0.0185 µM

Sequence: GGGACCCUUGUAGGAUAUAGAACCGCAGGAGGUCUAGAAGGGCACUGGUCGCCGUGGACAUGAGGAUCACCCAUGUGUUUGCCC [Eternabot solution 36] (Eterna round: R96, puzzle: Exclusion NG 1)
- apparent KD of MS2 coat protein (input ligand: FMN 200 uM): 0.0552 µM
- apparent KD of MS2 coat protein [4]: 0.0402 µM
- apparent KD of MS2 coat protein (input ligand: none): 0.0524 µM

Sequence: GCAGUUCGAGUUAGGAUAUGAUGUUAAUUCGGAUAUCAGAAGGAACUUGAGGAUCACCCAAGUAUAGAUGUUGU [JR_BMEx4_Sub061] (Eterna round: R97, puzzle: Brourd's mod of Exclusion 4)
- apparent KD of MS2 coat protein (input ligand: FMN 200 uM): 0.0313 µM
- apparent KD of MS2 coat protein (input ligand: none): 0.0198 µM
